Experimental findings from the DeepSol protein solubility set are described below.

The nature of the data set: soluble on expression in E. coli; label from the status in PepcDB or PDB records.
Consider “MAHHHHHHMCCTFWGLRLDNTCNNMKSVDIIKCDMCFFSHDGLFLIYTIINKIFVIQVKNLEMYRIYVESYKVDDIKLSSDNIHFLTLIKNKGCVCIYSFYKNNLINKICDYFQTYDHSFFLSKHNNIGIVKYEKKCLTIYNMNNPEKCLINIENIKYQNKGYCSNYINTIFACLVENKKDVNILLLSLFNYTIIKIIKCINFFPNDILFSKSDHIIAYSNKNRSLHIYSIDGDLLHVYKYAEDLGGNTKNVKKKKKKKKKSKFCAWKILKKSSFSFWITHCK”, for which the “soluble on expression in E. coli” value is given as “not soluble”.
In the case of “MAHHHHHHMCDPLVERFISDIIRDPQAWKRAVTSPDNRCCLLPTSNVIRSLAGPLFRRGCVDNVSSLRFLTTLRRDTLSGGNVQRVSMKRKDLRGPWDHRTRVSEEDQPNILIQLLVRQLERNGFGTSYRKAVYSLLGKQVKEMSKKKRQHDAAATAKTMKLNARRIEHLLMEEYNERKKTCDREGRRRQALVRGFFNKASVVVENEEFIGRRTIFQDALDECFAIKTLMEGETQKLTGIPPEHQRNYFAIQQKEKHERECLLARFETQRRAIYLQLQHDIKNSIKSEIRRIMRREKHIEELYKKHGCGK”, the “soluble on expression in E. coli” value is on record as “not soluble”.
The result for “MAHHHHHHMCKDKNEKKNYEHVNANEKNGYLASEKNELTKNKVEEHTYDYDYVVIGGGPGGMASAKEAAAHGARVLLFDYVKPSSQGTKWGIGGTCVNVGCVPKKLMHYAGHMGSIFKLDSKAYGWKFDNLKHDWKKLVTTVQSHIRSLNFSYMTGLRSSKVKYINGLAKLKDKNTVSYYLKGDLSKEETVTGKYILIATGCRPHIPDDVEGAKELSITSDDIFSLKKDPGKTLVVGASYVALECSGFLNSLGYDVTVAVRSIVLRGFDQQCAVKVKLYMEEQGVMFKNGILPKKLTKMDDKILVEFSDKTSELYDTVLYAIGRKGDIDGLNLESLNMNVNKSNNKIIADHLSCTNIPSIFAVGDVAENVPELAPVAIKAGEILARRLFKDSDEIMDYSYIPTSIYTPIEYGACGYSEEKAYELYGKSNVEVFLQEFNNLEISAVHRQKHIRAQKDEYDLDVSSTCLAKLVCLKNEDNRVIGFHYVGPNAGEVTQGMALALRLKVKKKDFDNCIGIHPTDAESFMNLFVTISSGLSYAAKGGCGGGKCG” reads “soluble”; that for “MAHHHHHHMCLLDVDEYKHTDTPEPRGEILLRGPFLFKGYYMQEKLTREALDEDGWFHTGDVGSITTHGRLRIIGRVKALAKNVLGEYIALEALESMYAHNALCMPNGVCVLVHPARSYICALVLTDETKAMMFAKEHGIEGSYPDILRDPAFQRKATESMQATARKADRQKFECVRHVRVVGDEWTPENEILTAAGKLKRREIDKRYADVIQLLFVEEC”, “not soluble”; that for “MAHHHHHHMDLIQWPLPYQDELLNFYIFNDSKFVGGQNRWNLFKKKVMHHNIHVISNCYCQISLLRLSQLLNASVDDSESFLSELVSNKILNAKIDRLHGIIKFGQKKTPEVLLNNWSSQIHQILNLLEESSHLIQKERMLHEAKLKRMQLESKNMSL”, “not soluble”.
The result for “MAHHHHHHMDRLAGSFLSNGDVANASSLYNSLEKLNPTRYSRMARICRVLLNPQGVPLPHRHLDICEALLDPLVPPEVLLRDSAENVQKSFQRLAVCAHPDKNPSPSANEAFLRLTMMKDKALELLRNGVGRKCDGATEAPPGKAADSNGGKGKPKMQGSGPAVPTVAHRRRPLRPGVPL” reads “soluble”.
Then “MAHHHHHHMDYNVSTAAVVLDCGSFHSRAGFGGEKGPRLDVPTLVGYPRHRSIAMAAGMNEQEVGEEALLKQGILDVHHPIRNGFINDWGDVEKLWSHLFFNELRVSPETHCFLLTQPVNTPAAQRERTLEIMMETFHAHSLYLGTSQVLSLYSYGLTTGLVVDSGKDVTHAVPIHEGYALVRHVTQSPVAGAALTRYLGGLLREQGYALGTATEQELLNGAKEDLCYVRPRAHVQRGAVSDIYTPASGTSAGVSPAAASAASRRSTQLTGGIKGSADSASSATATTAVTAKESFMESAAEKHLDVDGGLTPTAVMGATEDFLLPDGQRIPLAAERYDTAEVLFNYSLLALMDSNGKDSSTYEPRCKVRTDMGDLFRPSFEKGISWLPFAAVNNCEAALRPQLYANMVLAGGSTSFPGLKARLESEVRQLYRESHPSEAVVPIQVRDMPCRTYSTWLGGSMLAQTAVFQHLVVSRKEYEEEGARVIHYKSL”, with “not soluble”; and “MAHHHHHHMEAAAERCFQEGDLKGAACLYANLMVLYPQYTKMARMCRVLSNPLDVPLPYRYADVVEALLDPCVTYQTLFGTDAPPSVVRKAFQGWTLLVHPDKNPYPKAADAFNRLVAFKAAAMGTVDEGPPNAGGVNSKSSCRGNVRNRQRCTKRHGSANRANQSNQHSQLGDEIDMSLYELKKVQVTLKSLKRKNVDDSELPPLSAFLRPGGGARSRGGVDHSNNTKGSVPTPETQEGGSASLDESIPTSPRSCTADTACEPGLSQTIEAQLRSSEGATDAPYVLSELTPQQNEVVRGGKGLEGENTEEPLGLPTAGGHMQQYATNRNVGEVDNGSRVSLEADDSVQGPAKGIQNPDALPRRRGKHVDRLEGTCTGEFTQQSNQNSTCDTSSSEGLHSTTFNEDVPLVELAKLGIRELFDGIQKKINRDPIRLNCDLSFATYTRDKQKEVNEASVQSNDET”, with “not soluble”.
On to “MAHHHHHHMEAKAQAYLEKLSNSLQAAGRTATADVLKRAKEEFERSLWCEMTDDLLLAVRDPLVLESAYELHENVLKVTRMDMSPTAYVKLLHYICFCPNSTLQKALDLLNGAVVALSTSSEQGENMANCIRALLLLDSYNDKSSPAGTAASEASRILDKVESFIHSKQMHEVEPVLAALHCQARGKDYEIRQQYTKYYSNAFETVKSAERAEMPIIESDLLSLAYKAALSALLSEEIYNFGKFLNERHFTERLADSVQHAWILEWLRLCNDGKVEEFEQYAVAHKAEMAASPILSEFFPSITKKVRLMALLHLVFYTPFNERTFTFDVIARRCAVDEERVEPLLLAALAQGIIMGKIDGLTQEVHITWVEPRVLSLQEVKELAVHVSRWKEKTLGLMQCMKEAAQETHN”, for which the “soluble on expression in E. coli” value is recorded as “soluble”.
Then “MAHHHHHHMEISSISETDKNAITRLLSSDLSRTVARHAIIVLHYFRTISDEDLPIDVLLGGCVLYAVKQRQASNANYFLRECLERVKESDIVGFELLLVQVVRHNVLLIETCLRSVFHEVLLENPVAGLDRERTIKVCLHLISFLYRTSWCLFPESAARGAFLVASEKCEIKLGKLSSAFDGPMVKHIAKYLRDQFWN”, with “not soluble”; and “MAHHHHHHMEVEGTKERARGVTTFTRADLELREAAEDHRALLAEPWASHALRKGYSGREEHTKWITETWEAFERRKEDQKLYLERHDLCLQYKAAQLSETRRLSEQKSAALVEKMMALEAARKGALLQSRHFLFVDYYDYQQFLFRNQRSFVEDEEKLLRCKLSETEDDLMCLLVIQWHLSSHLHAAREKERVEEEAAAERLREFQYRQKLEEERLREEQRIAQEKEASQAEKEQAELEKRLERKRRDAERRAKVRAEREQRRAQE”, with “not soluble”.
Then “MAHHHHHHMFLLCRTNLAKKIKDKIPYGVKQSQNYKDAKKQERLALEANRKLKESRGMLLDGKKNLFMCLRQNSDINWYRAGQILKHLEIHQRAKPDITPSLREKITNIANFVKKGR”, with “soluble”.
As for “MAHHHHHHMFMCRVHARARYLYILQNGSVEEMTALLTKLRAAVPSERLIIEHRPQNIGYAAAVNEGYRVALQKPHAEVPFIGVFNCDVYFERRYFGRYIPVVYKMLAPDAARIRALEEVVEQEERAARAAGRQTLRASVATTPGLSISMLLPDRIRYSSFAEQQDEFKGHVGMFYYETKSMCAFLVSRLALLVGGFLDENFYPAYFEDYDWQFRLANLGFKTFTGSSAQFGGFFHRMGGNIRVINKGPAGKSISYDMAAIRVERMLNAKPGIDYGETKWAWHREALVAMSATPFPQLGFIVPLDVWVLDAARHQLIIDIGTGRRPSVEMSNTYNVSLLSSLRRFALADGKDFWGSGIITTEPDWRK”, the “soluble on expression in E. coli” value is on record as “not soluble”.
With “MAHHHHHHMFMVDTDGSAISYHIPVSPFVPLQHDKIDVTTVNRLANFGMRFAMEHGWCYNRHSGDAHSNYASEAVEEGYVESGEDVTVFFAGVDVELVGEFPKFDGKITPASVFFLGQFWISHVGKSSFGVYGKIFRYEAADEKNKFPIGVFKLTGVNVSKKSRRPVPIPKERAEMLLETMRRHQLNTSLPLVVRIDVADFLSRSGLFTDTTYCKLVDKMATYASVTPLTVTYRREFHIRQSDIDFNRHVNQMALIQFVINTFRSALLDQTTVFPRLLDVGVDAIVGDLLLRRLHIDYIRETPMGHQSVAVALFFAEDSSRDAVIASTPESRGNQLAELCFLAQGIPGDGSPSYIAAVGKLYFFC”, the “soluble on expression in E. coli” value was “not soluble”.
